# In patent publication US20050106581A1, “Modified phosphodiesterase polypeptides with altered physiochemical properties” (priority 2002, published 2005):
# B1: DC: PDE4D polypeptide with amino-terminal deletion starting at the LF1 splice site, SEQ ID No. 2, 6xHis tagged (protein, listed as Homo sapiens)
# chain: MFDVDNGTSAGRSPLDPMTSPGSGLILQANFVHSQRRESFLYRSDSDYDLSPKSMSRNSSIASDIHGDDLIVTPFAQVLASLRTVRNNFAALTNLQDRAPSKRSPMCNQPSINKATITEEAYQKLASETLEELDWCLDQLETLQTRHSVSEMASNKFKRMLNRELTHLSEMSRSGNQVSEFISNTFLDKQHEVEIPSPTQKEKEKKKRPMSQISGVKKLMHSSSLTNSSIPRFGVKTEQEDVLAKELEDVNKWGLHVFRIAELSGNRPLTVIMHTIFQERDLLKTFKIPVDTLITYLMTLEDHYHADVAYHNNIHAADVVQSTHVLLSTPALEAVFTDLEILAAIFASAIHDVDHPGVSNQFLINTNSELALMYNDSSVLENHHLAVGFKLLQEENCDIFQNLTKKQRQSLRKMVIDIVLATDMSKHMNLLADLKTMVETKKVTSSGVLLLDNYSDRIQVLQNMVHCADLSNPTKPLQLYRQWTDRIMEEFFRQGDRERERGMEISPMCDKHNASVEKSQVGFIDYIVHPLWETWADLVHPDAQDILDTLEDNREWYQSTIPQSPSPAPDDPEEGRQGQTEKFQFELTLEEDGESDTEKDSGSQVEEDTSCSDSKTLCTQDSESTEIPLDEQVEEEAVGEEEESQPEACVIDDRSPDTHHHHHH
# modifications: 6xHis tag; PDE4D_core (1)..(664); LF1_splice_site (2)..(2); UCR1_site_-13 (22)..(22); UCR1_site (35)..(35); SER54 (39)..(39); SER579 (564)..(564)
# Experiments:
# [1] = Quantification of aggregates and tubulin content (SDS-PAGE densitometry of SEC fractions); type: physicochemical; conditions: compared to isoforms D3 and D5 to D8
# Excerpt: In a preferred embodiment, the invention provides a polypeptide comprising a PDE polypeptide sequence, with an amino-terminal deletion wherein the proportion of non-aggregated PDE in the total protein preparation is from 55 %, preferably from 60%, more preferably from 65%, most perferably from 68% to 100%, preferably to 90%, more preferably to 80%, most preferably to 70% of total protein, as determined by the quantitation of eluted fractions from a gel filtration of the PDE fractions. Quantitation was performed as follows: Equal volume aliquots of fractions from Size Exclusion Chromatography, run as hereinbefore described, were analyzed by SDS-PAGE (one gel per run and isoform, FIG. 3). […]
# To determine the decrease in tubulin association, the ratio of PDE molecules per tubulin molecules in the preparation of PDE polypeptide was calculated by quantitation of SDS-PAGE. […] The tubulin content of PDE preparations was determined as follows: Equal volume aliquots of fractions from SEC were analyzed by SDS-PAGE (one gel per run and isoform, FIG. 3). Optical densities of Coomassie stained PDE and tubulin bands were integrated as described hereinbefore for PDE aggregation quantitation. […]
# Quantification of Aggregates and Tubulin Content
# Equal volume aliquots of fractions from SEC were analyzed by SDS-PAGE (one gel per run and isoform, FIG. 3). […]
# [2] = Qualitative investigation of aggregation by size exclusion chromatography (gel filtration); type: physicochemical; conditions: Superose 12, compared to the five isoforms of PDE4D (D3, D5-D8)
# Procedure: The term “improved physicochemical properties” as used herein refers to a decrease in aggregate formation of polypeptides. For the purpose of definition, aggregate formation of the polypeptides of this invention is determined by quantitation of the fractions of a gelfiltration experiment in which aggregated PDE elutes, and of the fractions in which non-aggregated PDE elutes. The degree of aggregation is calculated in percent of non-aggregated PDE based on total (aggregated and non-aggregated) PDE. […] Chromatograms were recorded at 278 nm. […]
# 50 μl of Ni-NTA agarose purified isoform preparation was injected into a Superose 12 size exclusion column (type PC3.2/30; Amersham Pharmacia Biotech), equilibrated with 50 mM TrisHCl pH 7.7, 100 mM NaCl, 0.5 mM MgCl2 at a flow rate of 0.1 ml/min at 4° C. Chromatograms were recorded at 278 nm. […]
molecule,measurement,setting,value
B1,Percentage of non-aggregated PDE4D based on total PDE4D protein,[1],highest percentage of non-aggregated PDE4D
same,"Tubulin content (ratio between PDE4D and tubulin, total mass basis)",[1],significantly lower
same,Aggregate formation (gel filtration elution profile),[2],decrease in aggregation
